Values of other authors in PMC2895966.

Target: Pyrrhocoricin (Pyrrhocoris apterus) (UniProt P37362)
Sequence (P37362 whole entry): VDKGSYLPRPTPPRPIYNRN

Sequence of DnaK SBD (P0A6Y8 389-607): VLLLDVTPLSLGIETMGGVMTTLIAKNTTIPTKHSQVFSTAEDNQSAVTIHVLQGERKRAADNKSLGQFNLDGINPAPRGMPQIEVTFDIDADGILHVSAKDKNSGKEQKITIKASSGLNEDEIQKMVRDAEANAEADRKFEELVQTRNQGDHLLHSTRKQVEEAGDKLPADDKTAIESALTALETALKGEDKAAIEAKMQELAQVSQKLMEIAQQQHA

With DnaK SBD (from UniProt P0A6Y8) as the substance, how does the Kd read?
The Kd was 50 µM.
